Reference: the supplement of paper PMC9170038

System: MS2 coat protein
Assay: apparent KD of MS2 coat protein; designed switch direction (-1 OFF switch, 1 ON switch): -1; higher = weaker reporter binding
Summary of the method: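 RNA switches sharing common flanks were transcribed by stalled E. coli RNA polymerase on Illumina chips. A doubling series of SNAP-549-labelled MS2 coat protein, from 0.7 or 1.5 nM to 3 µM, was applied in Tris-HCl pH 7.5 buffer with KCl, MgCl2, BSA, DTT, tRNA and Tween-20. Each step lasted 0.8–1.5 h at the bottom of the series and 10–20 min at the top. Normalised cluster fluorescence was curve-fitted, giving apparent KD as the per-design median over clusters.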

[1] = Eterna round: R95, input ligand: microRNA oligo, concentration not stated
[2] = Eterna round: R95, input ligand: FMN 200 uM
[3] = Eterna round: R95, input ligand: none
[4] = input ligand: microRNA oligo, concentration not stated

For “GCAUGCUAUGUCAGGAUAUACCUGUGGAUACAUAGGUAGAAGGGACAUGAGGAUCACCCAUGUCCUAAUCAUGC [Fiskers BMX 4 - 24] (puzzle: Brourd's mod of Exclusion 4)”, the “apparent KD of MS2 coat protein” value [1] was 12.1 nM.
For “GCAUGGAGACAGGAUAUCCGCGCGAACAAAAUAGGAGAAGGGUCUACAUGAGGAUCACCCAUGUGACGGUAUCC [Aedenqu] (puzzle: Exclusion 6)”, the “apparent KD of MS2 coat protein” value [2] was 62.2 nM, the “apparent KD of MS2 coat protein” value [1] was 21.7 nM and the “apparent KD of MS2 coat protein” value [3] was 27.2 nM.
With “GCAUGUUAUGUCAGGAUAUACCUAUGGAUACAUAGGUAGAAGGGACAUGAGGAUCACCCAUGUCCUAAUCAUGC [Fiskers BMX 4 - 23] (puzzle: Brourd's mod of Exclusion 4)” the “apparent KD of MS2 coat protein” value [1] was 12.5 nM.
For “GCAUUGAGUGUGAGGAUAUGCUGGUCAUAAGAUCAGCAGAAGGCACAUGAGGAUCACCCAUGUGAAAACAAUGC [Mat - Exclusion 4 - JL Mod - D66] (puzzle: Brourd's mod of Exclusion 4)”, the “apparent KD of MS2 coat protein” value [2] was 93.1 nM, the “apparent KD of MS2 coat protein” value [1] was 14.7 nM and the “apparent KD of MS2 coat protein” value [3] was 19.2 nM.
In the case of “GCCAGAGCAGGAUAUUCAAUAUCACACAUGAGGAUCACCCAUGUCCGGCGAAAGCUGGAGGGAGAAGGGCUCUGGC [Fiskers Ex 5 - 14] (puzzle: Exclusion 5)”, the “apparent KD of MS2 coat protein” value [1] is reported as 49.4 nM.
In the case of “GCCAGAGCAGGAUAUUCAAUGUAUCACAUGAGGAUCACCCAUGUCCAGCGAAAGCUGGAGGGAGAAGGGCUCUGGC [Fiskers Ex 5 - 17] (puzzle: Exclusion 5)”, the “apparent KD of MS2 coat protein” value [2] is reported as 65.6 nM, the “apparent KD of MS2 coat protein” value [1] is reported as 234 nM and the “apparent KD of MS2 coat protein” value [3] is reported as 257 nM.
“GCCAGGUGAUUCGGCCAUGACAUGAGGAUCACCCAUGUAACAAUCUAGCAAGCAAACAAGGCCGUCGUGUAGGUAUU [Rigeusarla] (Eterna round: R96, puzzle: Sensor v2, turn-off variant)” was tested, and the “apparent KD of MS2 coat protein” value (input ligand: FMN 200 uM) was 78 nM, the “apparent KD of MS2 coat protein” value [4] was 61.1 nM and the “apparent KD of MS2 coat protein” value (input ligand: none) was 76.7 nM.
For “GCCCAGUUAGGAUAUACAUGUCACGUCCUAACGGUCGAAGGACAUGAGGAUCACCCAUGUAGAAGGGACCGGCA [Onraonbe] (Eterna round: R97, puzzle: Exclusion 2)”, the “apparent KD of MS2 coat protein” value (input ligand: FMN 200 uM) was 17.7 nM and the “apparent KD of MS2 coat protein” value (input ligand: none) was 21.2 nM.
For “GCCCGGGCAGGAUAUACAAGCUAGUGCUGAAAAGUGCUAGUACAUGAGGAUCACCCAUGUAGAAGGGCCCGGGC [-37.6, -35.7 kcal, A 28% 2bis] (Eterna round: R97, puzzle: Exclusion 2)”, the “apparent KD of MS2 coat protein” value (input ligand: FMN 200 uM) was 30.5 nM and the “apparent KD of MS2 coat protein” value (input ligand: none) was 18.1 nM.
In the case of “GCCGAAAAAGUGAGGAUAUACCUAUGGAUACAUAGGUAGAAGGCACAUGAGGAUCACCCAUGUAUCCUAACGGC [Eli bmx4 4.28] (Eterna round: R97, puzzle: Brourd's mod of Exclusion 4)”, the “apparent KD of MS2 coat protein” value (input ligand: FMN 200 uM) is reported as 362 nM and the “apparent KD of MS2 coat protein” value (input ligand: none) is reported as 29 nM.
For “GCCGAAAAUGAGAGGAUAUGCCUAUGGAUACGUAGGCAGAAGGCACAUGAGGAUCACCCAUGUUCCUCAACGGC [JL-BMX4-4.26 Eli mod] (Eterna round: R97, puzzle: Brourd's mod of Exclusion 4)”, the “apparent KD of MS2 coat protein” value (input ligand: FMN 200 uM) was 19.4 nM and the “apparent KD of MS2 coat protein” value (input ligand: none) was 14.6 nM.
In the case of “GCCGAAAGUGUGAGGAUAUACCUAUGGAUACAUAGGUAGAAGGCACAUGAGGAUCACCCAUGUGUCCAAACGGC [Eli bmx4 4.23] (Eterna round: R97, puzzle: Brourd's mod of Exclusion 4)”, the “apparent KD of MS2 coat protein” value (input ligand: FMN 200 uM) is reported as 54 nM and the “apparent KD of MS2 coat protein” value (input ligand: none) is reported as 21.7 nM.
For “GCCGAUUAAGUCAGGAUAUACCUAUGGAUACAUAGGUAGAAGGGACAUGAGGAUCACCCAUGUUCCUCAGCGGC [Fiskers BMX 4 - 14] (puzzle: Brourd's mod of Exclusion 4)”, the “apparent KD of MS2 coat protein” value [1] was 14.5 nM.
For “GCCGGAUUUGUGAGGAUAUGCCUAUGGAUACAUAGGCAGAAGGCACAUGAGGAUCACCCAUGUUCCUCACCGGC [JL-BMX4-4.24 Eli mod] (Eterna round: R97, puzzle: Brourd's mod of Exclusion 4)”, the “apparent KD of MS2 coat protein” value (input ligand: FMN 200 uM) was 232 nM and the “apparent KD of MS2 coat protein” value (input ligand: none) was 29.8 nM.
“GCCGGGCGUGUAGGAUAUGGCCGGCGGUGCCGGCCAGAAGGACAUGAGGAUCACCCAUGUGCCGGCCUUGGGCCGGCGCCCGGC [-51, -48 kcal and 14% A] (Eterna round: R96, puzzle: Exclusion NG 1)” was tested, and the “apparent KD of MS2 coat protein” value (input ligand: FMN 200 uM) was 14.9 nM, the “apparent KD of MS2 coat protein” value [4] was 8.09 nM and the “apparent KD of MS2 coat protein” value (input ligand: none) was 13.3 nM.
With “GCCGGUCAUGUAGGAUAUGGCCGGCGGUGCCGGCCAGAAGGACAUGAGGAUCACCCAUGUGCCGGCCUUUGGCCGGCGCCCGGC (Eterna round: R96, puzzle: Exclusion NG 1)” the “apparent KD of MS2 coat protein” value (input ligand: FMN 200 uM) was 8.65 nM, the “apparent KD of MS2 coat protein” value [4] was 11.2 nM and the “apparent KD of MS2 coat protein” value (input ligand: none) was 18.6 nM.
In the case of “GCCGUGCAAGGAUAUCGCGGAAAGAACAUGAGGAUCACCCAUGUGAUCACCUUCUAAAUGCGAGAAGGUGCUAAAA [Axebied] (puzzle: Exclusion 5)”, the “apparent KD of MS2 coat protein” value [2] is reported as 75.7 nM, the “apparent KD of MS2 coat protein” value [1] is reported as 56 nM and the “apparent KD of MS2 coat protein” value [3] is reported as 81.4 nM.
In the case of “GCCUCACAUGAGGAUCACCCAUGUCAGGAUAUAGGAGACGGCAGAAAUCCUGCCAUCGCUAGAAGGGACUGGCA [Tirebi] (Eterna round: R96, puzzle: Exclusion 1)”, the “apparent KD of MS2 coat protein” value (input ligand: FMN 200 uM) is reported as 138 nM, the “apparent KD of MS2 coat protein” value [4] is reported as 50.6 nM and the “apparent KD of MS2 coat protein” value (input ligand: none) is reported as 67 nM.
In the case of “GCCUCACAUGAGGAUCACCCAUGUCAGGAUAUAGGAGACGGUAGCUUUGCUGCCAUCGCUAGAAGGGACUGGCU (puzzle: Exclusion 1)”, the “apparent KD of MS2 coat protein” value [1] is reported as 65.6 nM.
With “GCCUCACUUGAGGAUCACCCAAGUCAGGAUAUCUACAAGCCGGCCAUGCCAGCUUGCAAGAGAAGGGACUCUAA [Diazale] (Eterna round: R97, puzzle: Exclusion 1)” the “apparent KD of MS2 coat protein” value (input ligand: FMN 200 uM) was 205 nM and the “apparent KD of MS2 coat protein” value (input ligand: none) was 31.6 nM.
For “GCCUCACUUGAGGAUCACCCAAGUCAGGAUAUCUACAGGCCGGCCAUACCGACCUGCAAGAGAAGGGACUCUAA [Aristi] (Eterna round: R97, puzzle: Exclusion 1)”, the “apparent KD of MS2 coat protein” value (input ligand: FMN 200 uM) was 211 nM and the “apparent KD of MS2 coat protein” value (input ligand: none) was 31.4 nM.
For “GCCUCGUCAGGAUAUUGGGAAGGCUGUUUUAUGAUUGCCCACAAGAAGGGACAUGAGGAUCACCCAUGUACAUU [Eternabot (L1) Solution 51] (Eterna round: R97, puzzle: Exclusion 4)”, the “apparent KD of MS2 coat protein” value (input ligand: FMN 200 uM) was 63.3 nM and the “apparent KD of MS2 coat protein” value (input ligand: none) was 32.5 nM.
In the case of “GCCUGUGAAGGAUAUACAUGAGGAUCACCCAUGUGGCGGGCAUACCCGCCGAGACCGUGUAGAAGGUCAUAGUA [Telamais] (puzzle: Exclusion 3)”, the “apparent KD of MS2 coat protein” value [1] is reported as 49.9 nM.
With “GCCUUACAUGAGGAUCACCCAUGUCAGGAUAUGUCAGAGUAGGUAAAACACCACUCUAAUAGAAGGGACAUGCA [Diisarlais] (puzzle: Exclusion 1)” the “apparent KD of MS2 coat protein” value [1] was 16.5 nM.
In the case of “GCGAUAAACGAGGAUAUCGUAUCGGAAACGAUACGAGAAGGUGUAACAUGAGGAUCACCCAUGUUCCUCAACGC [Mat - Exclusion 6 - Eli Mod - D65] (puzzle: Exclusion 6)”, the “apparent KD of MS2 coat protein” value [1] is reported as 36.3 nM.
In the case of “GCGAUGUGAGGAUAUACAAGGUGUGAGAGUGCUUGAACGUAACAUGAGGAUCACCCAUGUAGAAGGUAUGUGAU [Eternabot (L1) Solution 29] (Eterna round: R97, puzzle: Exclusion 2)”, the “apparent KD of MS2 coat protein” value (input ligand: FMN 200 uM) is reported as 109 nM and the “apparent KD of MS2 coat protein” value (input ligand: none) is reported as 181 nM.
With “GCGCAAACGCCAAAAGGCGAAAUUACAUGAGGAUCACCCAUGUAGGAUAUCGAUUGCUUUGCAGUCGAGAAGGACAUGAUGCGC [JL ENG3 3.80 Mod 1] (Eterna round: R96, puzzle: Exclusion NG 3)” the “apparent KD of MS2 coat protein” value [4] was 13.6 nM.
